Experimental data from patent EP1506972A1 (Genentech Inc., dated 2005).

Tests used:
[1] = biological target: IGF-I D20A (G1S-A70V background) displayed on phage (human; bacteriophage M13); assay: competitive phage ELISA, soluble IGFBP-3 vs coated IGFBP-3
[2] = biological target: Ala(1-3)-IGF-I, triple alanine mutant of the first three N-terminal amino acids, displayed on phage (human; bacteriophage M13); assay: as above
[3] = biological target: IGF-I F25A (G1S-A70V background) displayed on phage (human; bacteriophage M13); assay: as above
[4] = biological target: IGF-I G19A (G1S-A70V background) displayed on phage (human; bacteriophage M13); assay: as above
[5] = biological target: IGF-I R37A (G1S-A70V background) displayed on phage (human; bacteriophage M13); assay: as above
[6] = biological target: IGF-I V44A (G1S-A70V background) displayed on phage (human; bacteriophage M13); assay: as above
[7] = biological target: IGF-I F23A (G1S-A70V background) displayed on phage (human; bacteriophage M13); assay: as above
[8] = biological target: IGF-I R21A (G1S-A70V background) displayed on phage (human; bacteriophage M13); assay: as above
[9] = biological target: IGF-I S34A (G1S-A70V background) displayed on phage (human; bacteriophage M13); assay: as above
[10] = biological target: IGF-I G22A (G1S-A70V background) displayed on phage (human; bacteriophage M13); assay: as above
[11] = biological target: IGF-I G42A (G1S-A70V background) displayed on phage (human; bacteriophage M13); assay: as above
[12] = biological target: IGF-I N26A (G1S-A70V background) displayed on phage (human; bacteriophage M13); assay: as above
[13] = biological target: IGF-I T41A (G1S-A70V background) displayed on phage (human; bacteriophage M13); assay: as above
[14] = biological target: IGF-I Y24A (G1S-A70V background) displayed on phage (human; bacteriophage M13); assay: as above
[15] = biological target: IGF-I S35A (G1S-A70V background) displayed on phage (human; bacteriophage M13); assay: as above
[16] = biological target: IGF-I Q40A (G1S-A70V background) displayed on phage (human; bacteriophage M13); assay: as above
[17] = biological target: IGF-I I43A (G1S-A70V background) displayed on phage (human; bacteriophage M13); assay: as above
[18] = biological target: recombinant human IGFBP-3 (human) (UniProt P17936); assay: BIAcore
recombinant human IGFBP-3 (human), sequence (P17936 28-291 limits assumed): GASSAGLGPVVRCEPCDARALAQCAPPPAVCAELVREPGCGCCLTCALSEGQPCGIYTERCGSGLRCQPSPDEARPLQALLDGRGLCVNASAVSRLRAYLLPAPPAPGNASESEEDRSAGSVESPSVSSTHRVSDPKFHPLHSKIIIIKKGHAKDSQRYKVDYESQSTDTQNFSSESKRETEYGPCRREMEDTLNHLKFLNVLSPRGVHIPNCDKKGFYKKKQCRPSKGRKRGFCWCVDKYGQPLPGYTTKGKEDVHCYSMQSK

human IGFBP-1 (human) = biological target: T1, human IGFBP-1 (human) (UniProt P08833); assay: BIAcore
T1 sequence (looked up): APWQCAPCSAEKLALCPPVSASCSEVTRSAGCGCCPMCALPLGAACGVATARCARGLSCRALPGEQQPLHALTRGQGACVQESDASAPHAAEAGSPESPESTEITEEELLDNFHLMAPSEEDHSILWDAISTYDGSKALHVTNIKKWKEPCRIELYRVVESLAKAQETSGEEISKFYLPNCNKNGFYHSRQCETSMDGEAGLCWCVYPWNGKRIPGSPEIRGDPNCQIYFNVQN

[19] = biological target: T2, IGF-I F49A (G1S-A70V background) displayed on phage (human; bacteriophage M13); assay: competitive phage ELISA, soluble IGFBP-1 vs coated IGFBP-1; conditions: remark: other sources report otherwise
T2 chain: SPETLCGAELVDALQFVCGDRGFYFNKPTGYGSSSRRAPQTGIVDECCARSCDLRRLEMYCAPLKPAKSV

recombinant human IGFBP-3 (from UniProt P17936 28-291)
IC50 [1]: 1.11 nM
relative IC50 (IC50mut/IC50 G1S-A70V) [1]: 1.5 fold
IC50 [2]: 1.12 nM
relative IC50 (IC50mut/IC50 G1S-A70V) [2]: 1.5 fold
IC50 [3]: 3.69 nM
relative IC50 (IC50mut/IC50 G1S-A70V) [3]: 4.9 fold
IC50 [4]: 0.9 nM
relative IC50 (IC50mut/IC50 G1S-A70V) [4]: 1.2 fold
IC50 [5]: 0.75 nM
relative IC50 (IC50mut/IC50 G1S-A70V) [5]: 1 fold
IC50 [6]: 1.03 nM
relative IC50 (IC50mut/IC50 G1S-A70V) [6]: 1.4 fold
IC50 [7]: 2.18 nM
relative IC50 (IC50mut/IC50 G1S-A70V) [7]: 2.9 fold
IC50 [8]: 0.58 nM
relative IC50 (IC50mut/IC50 G1S-A70V) [8]: 0.8 fold
IC50 [9]: 1.65 nM
relative IC50 (IC50mut/IC50 G1S-A70V) [9]: 2.2 fold
IC50 [10]: 2.07 nM
relative IC50 (IC50mut/IC50 G1S-A70V) [10]: 2.8 fold
IC50 [11]: 0.53 nM
relative IC50 (IC50mut/IC50 G1S-A70V) [11]: 0.7 fold
IC50 [12]: 0.9 nM
relative IC50 (IC50mut/IC50 G1S-A70V) [12]: 1.2 fold
IC50 [13]: 0.43 nM
relative IC50 (IC50mut/IC50 G1S-A70V) [13]: 0.6 fold
IC50 [14]: 2.53 nM
relative IC50 (IC50mut/IC50 G1S-A70V) [14]: 3.4 fold
IC50 [15]: 0.47 nM
relative IC50 (IC50mut/IC50 G1S-A70V) [15]: 0.6 fold
IC50 [16]: 0.56 nM
relative IC50 (IC50mut/IC50 G1S-A70V) [16]: 0.7 fold
IC50 [17]: 1.17 nM
relative IC50 (IC50mut/IC50 G1S-A70V) [17]: 1.6 fold

F25A IGF-I (soluble, purified) (from UniProt P05019 49-118) (ligand)
KD(mutant)/KD(IGF-I) [18]: 5.1 fold
KD(mutant)/KD(IGF-I) (human IGFBP-1 (human)): 25 fold

F16A IGF-I (soluble, purified) (from UniProt P05019 49-118) (ligand)
KD(mutant)/KD(IGF-I) [18]: 6.9 fold
KD(mutant)/KD(IGF-I) (human IGFBP-1 (human)): 25 fold

V11A IGF-I (soluble, purified) (from UniProt P05019 49-118) (ligand)
KD(mutant)/KD(IGF-I) [18]: 4.5 fold
KD(mutant)/KD(IGF-I) (human IGFBP-1 (human)): 5.1 fold

R36A IGF-I (soluble, purified) (from UniProt P05019 49-118) (ligand)
KD(mutant)/KD(IGF-I) [18]: 0.8 fold
KD(mutant)/KD(IGF-I) (human IGFBP-1 (human)): 1.1 fold

G1S/A70V IGF-I (soluble, purified) (from UniProt P05019 50-117) (ligand)
KD(mutant)/KD(IGF-I) [18]: 1.5 fold
KD(mutant)/KD(IGF-I) (human IGFBP-1 (human)): 1.1 fold

P39A IGF-I (soluble, purified) (from UniProt P05019 49-118) (ligand)
KD(mutant)/KD(IGF-I) [18]: 1.5 fold
KD(mutant)/KD(IGF-I) (human IGFBP-1 (human)): 1 fold

T4A IGF-I (soluble, purified) (from UniProt P05019 49-118) (ligand)
KD(mutant)/KD(IGF-I) [18]: 2.1 fold
KD(mutant)/KD(IGF-I) (human IGFBP-1 (human)): 6.9 fold

B1: human IGFBP-1, P08833 26-259 (protein, UniProt P08833 26-259, looked up)
chain: T1 sequence (looked up)
relative IC50 (IC50mut/IC50 G1S-A70V) [19]: > 100 fold
